Residue numbers refer to the chain shown, from its start. Each block holds one binder with its values, some of them ahead of it.
What was measured:
[1] = target: T1, recombinant human IL-13 receptor alpha 2 (hIL-13-Rα2) (human, UniProt Q14627 27-343); assay: direct ELISA on coated recombinant hIL-13-Rα2
T1 construct: Recombinant soluble antigen coated on ELISA plates or used in Biacore; also called rec hIL-13Rα2; rhIL-13Rα2
T1 sequence (looked up): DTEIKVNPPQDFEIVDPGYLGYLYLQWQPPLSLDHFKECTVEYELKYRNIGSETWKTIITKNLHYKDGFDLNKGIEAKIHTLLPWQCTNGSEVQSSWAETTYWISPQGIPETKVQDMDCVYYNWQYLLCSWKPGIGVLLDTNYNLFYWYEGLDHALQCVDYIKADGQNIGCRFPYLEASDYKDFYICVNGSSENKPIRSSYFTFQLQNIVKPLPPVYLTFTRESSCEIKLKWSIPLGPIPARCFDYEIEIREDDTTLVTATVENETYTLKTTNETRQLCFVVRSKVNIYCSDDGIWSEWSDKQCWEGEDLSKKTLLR
Procedure: Humanized hu08 binding to recombinant hIL-13-Rα2 was evaluated by a standard direct ELISA. Recombinant hIL-13-Rα2 was coated onto a 96-well plate. Serially diluted chimeric antibodies or humanized antibodies in combinations of heavy and light chains of versions 1.0 and 1.1 e.g. hu08 v1.0 HC/1.0 LC, hu08 v1.0 HC/v1.1 LC, hu08 v1.1 HC/v1.0 LC, and hu08 v1.1 HC/v1.1 LC, were added to the plate and incubated at room temperature for 1-2 hours. The binding was detected by HRP conjugated goat anti-human Ig Kappa.

[2] = target: T2, cynomolgus monkey IL-13-Rα2 ECD/TM domain with C-terminal Flag tag, on transfected HEK293 cells (cynomolgus monkey, UniProt Q14627 27-363 (human entry)); assay: FACS on HEK293 cells transfected with cyno-IL-13-Rα2 (given as ED50)
T2 construct: also called cyno-IL-13-Rα2; cyno IL-13Rα2; not shown: Flag tag at the C-terminal end
T2 chain: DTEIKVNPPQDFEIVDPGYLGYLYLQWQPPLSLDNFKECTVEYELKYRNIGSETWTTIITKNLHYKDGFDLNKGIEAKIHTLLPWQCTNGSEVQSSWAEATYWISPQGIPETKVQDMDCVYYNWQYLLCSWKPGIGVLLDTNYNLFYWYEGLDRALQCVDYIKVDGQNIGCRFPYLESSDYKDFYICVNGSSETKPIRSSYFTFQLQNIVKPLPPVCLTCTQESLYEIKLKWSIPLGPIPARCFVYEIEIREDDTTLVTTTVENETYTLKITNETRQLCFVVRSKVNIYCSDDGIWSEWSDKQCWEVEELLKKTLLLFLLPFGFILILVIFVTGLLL
Procedure: The ECD/TM domain of cyno IL-13-Rα2 fused with Flag tag at the C-terminal end was cloned into the pSMED2 expression vector. HEK293 suspension cells were transiently transfected with cyno-IL-13-Rα2 containing plasmid and pSMED2 vector (as a mock transfection). The cells were harvested 72 hours later and subjected to FACS analysis. 4 antibodies including ch07, ch08, hu08v1.0/1.0 and hu08v1.1/1.1 were tested. The binding on the cell surface cyno-IL-13-Rα2 was detected with R-Phycoerythrin-labeled goat anti-human or mouse IgG.

[3] = target: T1, recombinant human IL-13 receptor alpha …; assay: competition ELISA on coated recombinant hIL-13-Rα2, competitor biotin-ch08
Procedure: A competition ELISA was performed to assess whether hu08 1.0 and hu08 v1.1 compete with ch08 for IL-13-Rα2 binding. Recombinant hIL-13-Rα2 was coated onto 96-well plates at 50 ul of […] in PBS overnight at 4° C. Plates were then blocked and washed following standard ELISA protocol. A 3-fold serially diluted ch08, hu08 1.0 and hu08 v1.1, and negative control ch07 (2× final concentration) were mixed with biotinylated ch08 (2×EC₅₀). 50 μl of the antibody and biotin-ch08 mixture were added to the plate and incubated for 1 hour at room temperature. The amount of biotin-ch08 bound was detected by HRP conjugated streptavidin.

IL-13 = target: T3, IL-13 (UniProt P35225 35-146, limits assumed); assay: competition ELISA: IL-13 captured on an anti-Flag coated plate, constant amounts of IL-13 and biotinylated IL-13Rα2-Fc (the competitor), detected with streptavidin-HRP
T3 construct: also called IL-13 cytokine
T3 sequence (P35225 35-146 limits assumed): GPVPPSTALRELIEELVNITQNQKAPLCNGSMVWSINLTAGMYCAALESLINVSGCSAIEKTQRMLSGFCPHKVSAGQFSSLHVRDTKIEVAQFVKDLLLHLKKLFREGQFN
Procedure: In order to assess whether ch07 and ch08 can neutralize IL-13 function, a competition ELISA was performed. An anti-Flag Ab was coated onto 96-well plates and incubated overnight at 4° C. Plates were then blocked and washed following standard ELISA protocol. […] 100 ul of the complex was added to the ELISA plate and incubated for 1 hour at room temperature. The amount of biotin-IL-13-Rα2 bound was detected by HRP conjugated streptavidin at 1:5000 for 1 hour.

[4] = target: T1, recombinant human IL-13 receptor alpha …; assay: direct ELISA on rhIL-13Rα2 (given as ED50)
[5] = target: T1, recombinant human IL-13 receptor alpha …; assay: competition ELISA on plate (recombinant IL-13-Rα2), competitor biotinylated ch07
[6] = target: T1, recombinant human IL-13 receptor alpha …; assay: direct ELISA on rhIL-13Rα2, purified protein (given as ED50)
[7] = target: T1, recombinant human IL-13 receptor alpha …; assay: competition ELISA on plate, competitor biotinylated ch07, purified protein
[8] = target: T1, recombinant human IL-13 receptor alpha …; assay: SPR Biacore T100, pH 6.0
Procedure: (§1) To assess the binding kinetics of the ch07 and ch08 antibodies, SPR (Surface Plasmon Resonance) experiments were conducted on a Biacore® T100 or T200 instrument using a Biacore® human Fab Capture Kit (GE Healthcare). All data was analyzed using the Biacore® T100 evaluation software version 2.0 with a 1:1 Langmuir binding model.

[9] = target: T1, recombinant human IL-13 receptor alpha …; assay: SPR Biacore T100, pH 7.4
Procedure: as §1

[10] = target: T1, recombinant human IL-13 receptor alpha …; assay: standard ELISA on hIL-13-Rα2 (given as ED50)
[11] = target: T1, recombinant human IL-13 receptor alpha …; assay: competition ELISA on hIL-13-Rα2, competitor biotinylated ch08
Procedure: The binding properties of the cysteine mutants to hIL-13-Rα2 were evaluated by a standard ELISA and a competition ELISA. […] This conclusion was confirmed by a competition ELISA with biotinylated ch08.

[12] = target: T1, recombinant human IL-13 receptor alpha …; assay: SPR Biacore T100, pH 7.4 (column head prints nM; kd/ka gives M); pH 7.4
Procedure: as §1

EC50 [1]: 0.198 nM
EC50 [2]: 2.14 nM
IC50 [3]: 3.16 nM
B1: humanized antibody hu08 v1.1 HC/v1.1 LC (antibody, IgG1, V domains shown)
VH: EVQLVESGGGLVQPGGSLRLSCAASGFTFSRNGMSWVRQTPDKRLEWVATVSSGGSYIYYADSVKGRFTISRDNAKNSLYLQMSSLRAEDTAVYYCARQGTTALATRFFDVWGQGTLVTVSS
VL: DIQMTQSPSSLSASVGDRVTITCKASQDVGTAVAWYQQIPGKAPKLLIYSASYRSTGVPDRFSGSGSGTDFSFIISSLQPEDFATYYCQHHYSAPWTFGGGTKVEIK
notes: hIgG1 constant region and hIgKappa constant region; also called hu08 v1.1/1.1; hu08v1.1/1.1

IC50 (read off the curve) (IL-13): ~0.1 nM
B2: naked IL-13Rα2 (positive control competitor) (receptor, not shown: a dimerising Fc or GST; large carriers; small tags and cut ends)
chain: T1 sequence (looked up)

koff [8]: 0.000234 s⁻¹
kon [8]: 52900 M⁻¹ s⁻¹
koff [9]: 0.000246 s⁻¹
kon [9]: 97500 M⁻¹ s⁻¹
EC50 [1]: 0.175 nM
EC50 [10]: 0.11 nM
IC50 [11]: 2.01 nM
EC50 [2]: 1.96 nM
Kd [12]: 2.52 nM
IC50 [3]: 2.12 nM
B6: humanized antibody hu08 v1.0 HC/v1.0 LC (antibody, IgG1)
heavy: not shown
light: DIQMTQSPSSLSASVGDRVTITCKASQDVGTAVAWYQQKPGKAPKLLIYSASYRSTGVPSRFSGSGSGTDFTLTISSLQPEDFATYYCQHHYSAPWTFGGGTKVEIKRTVAAPSVFIFPPSDEQLKSGTASVVCLLNNFYPREAKVQWKVDNALQSGNSQESVTEQDSKDSTYSLSSTLTLSKADYEKHKVYACEVTHQGLSSPVTKSFNRGEC
notes: Humanized IgG1/kappa; also called hu08 v1.0/1.0; hu08v1.0/1.0

Continued, binder first:

B3: hu07 heavy chain v1.5 / light chain v1.1 (antibody, IgG1, V domains shown)
VH: EVQLVESGGGLVQPGGSLRLSCAASGFSLTKYGVHWVRQAPGKGLEWVGVKWAGGSTDYNSALMSRFTISKDNAKNSLYLQMNSLRAEDTAVYYCARDHRDAMDYWGQGTLVTVSS
VL: DIQMTQSPSSLSASVGDRVTITCTASLSVSSTYLHWYQQKPGSSPKLLIYSTSNLASGVPSRFSGSGSGTSFTLTISSLQPEDFATYYCHQYHRSPLTFGGGTKVEIK
notes: hIgG1 constant region and hIg Kappa constant region; also called hu07v1.5/v1.1
EC50 [4]: 1.21 nM
IC50 [5]: 46.6 nM

B4: humanized antibody hu07 heavy chain v1.5 / light chain v1.7 (antibody, IgG1, V domains shown)
VH: B3 VH
VL: B3 VL with L48W, F72Y
notes: hIgG1/kappa; also called hu07Hv1.5/kv1.7
EC50 [6]: 0.39 nM
IC50 [7]: 7.7 nM

B5: hu07 heavy chain v1.5 / light chain v1.0 (antibody, IgG1, V domains shown)
VH: B3 VH
VL: B3 VL with S43K, S44A, S71D
notes: hIgG1 constant region and hIg Kappa constant region; also called hu07v1.5/v1.0
EC50 [4]: 0.754 nM
IC50 [5]: 62 nM

From patent publication US20150266962A1 (Pfizer, published 2015)
